Fewer inactive variants are shown than the library holds.
B1: TPR 5TU (parent)
chain: GGAUCUUCUCGAUCUAACAAAAAAGACAAAUCUGCCACAAAGCUUGAGAGCAUCUUCGGAUGCAGAGGCGGCAGCCUUCGGUGGCGCGAUAGCGCCAACGUUCUCAACUAUGACACGCAAAACGCGUGCUCCGUUGAAUGGAGUUUAUCAUG

Variants of: B1
Assay: polymerase ribozyme fitness, log enrichment relative to wild type (log ratio); higher = more active; in vitro selection for triplet polymerase activity
How it was run: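 Fitness measures genotype enrichment against wild-type enrichment on a logarithmic scale, with inverse-variance-weighted averaging of replicates. The logarithm is base 2, and genotypes were kept only with ≥10 input reads and ≥1 read per output in Illumina sequencing. The sequenced libraries came from one triplicate in vitro selection round, including frozen incubation at −7 °C, of PCR-built, transcribed mutant libraries of each subunit of a heterodimeric triplet polymerase ribozyme.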

Variant | polymerase ribozyme fitness (log ratio)
GGUUCUUCUCGAUCUAACAAAAAAGACAAAUCUGCCACAAAGCUUGAGAGCAUCUUCGGAUGCAGAGGCGGCAGCCUUCGGUGGCGCGAUAGCGCUGACGUUCUCAACUAUGACACGCAAAACGCGUGCUCCGUUGAAUGGAGUUUAUCAUG [A3U C96U A97G] | 0.661
GGUUCUUCUCGAUCUAACAAAAAAGACAAAUCUGCCACAAAGCUUGAGAGCAUCUUCGGAUGCAGAGGCGGCAGCCUUCUGUGGCGCGAUAGCGCCAACGUUCUCAACUAUGACACGCAAAACGCGUGCUCCGUUGAAUGGAGUUUAUCAUG [A3U G80U] | -0.722
GGUUCUUCUCGAUCUAACAAAAAAGACAAAUCUGCCACAAAGCUUGAGAGCAUUUUCGGAUGCAGAGGCGGCAGCCUUCGGUGGCGCGAUAGCGCCAACGUUCUCAACUAUGACACGCAAAACGCGUGCUCCGUUGAAUGGAGUUUAUCAUG [A3U C54U] | -1.57
GGUUCUUCUCAAUGUAACAAAAAAGACAAAUCUGCCACAAAGCUUGAGAGCACCUUCGGAUGCAGAGGCGGCAGCGUUCGGUGGCGCGAUAGCGCCAACGUUCUCAACUAUGACACUCAAAACGCGUGCUCCGUUGAAUGGAGUUUAUCAUG [A3U G11A C14G U53C C76G G117U] | ≤ -4.2
GGUUCUUCUCGAUCUAACAAAAAAGACAAAUCUGCCACAAAGCUUGAGAGCAUCUUCGGAUGCAGAGGCGGCAGCCUUCGGUGGCGCGAUAGCGCGAACGUUCUCAACUAUGACACGCAAAACGCGUGCUCCGUUGAAUGGAGUUUAUCAUG [A3U C96G] | -1.47
GGUUCUUCUCGAUCUAACAAAAAAGACAAAUCUGCCACAAAGCUUGAGAGCAUCUUCGGAUGCAGAGGCGGCAGCCUUCGGUGGCGCGAUAGCGCAAACGUUCUCAACUAUGACACGCAAAACGCGUGCUCCGUUGAAUGGAGUUUAUCAUG [A3U C96A] | -0.199
GGUUCUUCUCGAUCUAACAAAAAAGACAAAUCUGCCACAAAGCUUGAGAGCAUCUUCGGAUGCAGAGGCGGCAGCCUUCGGUAGCGCGAUAGCGCCAACGUUCUCAACUAUGACACGCAAAACGCGUGCUCCGUUGAAUGGAGUUUAUCAUG [A3U G83A] | -1.47
GGUUCUUCUCGAUCUAACAAAAAAGACAAAUCUGCCACAAAGCUUGAGAGCAUCUUCGGAUUCAGAGGCGGCAGCCUUCGGUGGCGCGAUAGCACCAACGUUCUCAACUAUGACACGCAAAACGCGUGCUCCGUUGAAUGGAGUUUAUCAUG [A3U G62U G94A] | -1.08
GGUUCUUCUCGAUCUAACAAAAAAGACAAAUCUGCCACAAAGCUUGAGAGCAUCUUAGGAUGCAGAGGCGGCAGCCUUCGGUGGCGCGAUAGCGCCAACGUUCUCAACUAUGACACGCAAAACGCGUGCUCCGUUGAAUGGAGUUUAUCAUG [A3U C57A] | -0.997
GGUUCUUCUCGAUCUAACAAAAAAGACAAAUCUGCCACAAAGCUUGAGAGCAUCUUUGGAUGCAGAGGCGGCAGCCUUCGGUGGCGCGAUAGCGCCAACGUUCUCAACUAUGACACGCAAAACGCGUGCUCCGUUGAAUGGAGUUUAUCAUG [A3U C57U] | 0.223
GGUUCUUCUCGAUCUAACAAAAAAGACAAAUCUGCCACAAAGCUUGAGAGCAUCUUCGGAUGCAGAGGCGGCAGCAUUCGGUGGCGUGAUAGCGCCAACGUUCUCAACUAUGCCACGCAAAACGCGUGCACCGUUGAAUGGAGUUUAUCAUG [A3U C76A C87U A113C U130A] | ≤ -4.2
GGUUCUUCUCGAUCUAACAAAAAAGACAAAUCUGCCACAAAGCUUGAGAGCAUCUUCGGAUGCAGAGGCGGCAGCCUUCGCUGGCGCGAUAGCGCCAACGUUCUCAACUAUGACACGCAAAACGCGUGCUCCGUUGAAUGGAGUUUAUCAUG [A3U G81C] | -0.0386
GGUUCUUCUCGAUCUAACAAAAAAGACAAAUCUGCCACAAAGCUUGAGAGCAUCUUCCGAUGCAGAGGCGGCAGCCUUCGGUGGCGCGAUAGCGCCAACGUUCUCAACUAUGACACGCAAAACGCGUGCUCCGUUGAAUGGAGUUUAUCAUG [A3U G58C] | -0.0781
GGUUCUUCUCGAUCUAACAAAAAAGACAAAUCUGCCACAAAGCUUGAGAGCAUCUUCGGAUGCAAAGGCGGCAGCCUUCGGUGGAGCGAUAGCGCCAACGUUCUCAACUAUGACACGCAAAACGCGUGCUCCGUUGAAUGGAGUUUAUCAUG [A3U G65A C85A] | -3.12
GGUUCUUCUCGAUCUAACAAAAAACACAAAUCUGCCAUAAAGCUUGAGAGCAUCUUCGGAUGCAGAGGCGGCAGCCUUCGGUGGAGCGAUAGCGCCAACGUUCUCAACUAUGACAAGCAAAAUGCGUGCUCCGUUGAAUGGAGUUUAUCAUG [A3U G25C C38U C85A C116A C123U] | -2.27
GGUUCUUCUCGAUCUAACAAAAAAGACAAAUCUGCCACAAAGCUUGAGAGCAUCUUCGCAUGCAGAGGCGGCAGCCUUCGGUGGUGCGAUAGCGCCAACGUUCUCAACUAUGACACGCAAAACGCAUGCUCCGUUGAAUGGAGUUUAUCAUG [A3U G59C C85U G126A] | -0.686
GGUUCUUCUCGAUCUAACAAAAAAGACAAAUCUGCCACAAAGCUUGAGAGCAUCUUCGGAUGCAGAGGCGGCAGCCUUCGGUGGGGCGAUAGGGCCAACGUUCUCAACUAUGACACGCAAAACGCGUGCUCCGUUAAAUGGCGUUUAUCAUG [A3U C85G C93G G136A A142C] | ≤ -4.2
GGUUCUUCUCGAUCUAACAAAAAAGACAAAUCUGCCACAAAGCUUGAGAGCAUCUUCGGAUGCAGAGGCGGCAGCUUUCGGUGGCGCGAUAGCGCCAACGUUCUCAACUAUGACACGCAAAACCCGUGCUCCGUUGAAUGCAGUUUAUCAUG [A3U C76U G124C G141C] | -3.96
GGUUCUUCUCGAUCUAACAAAAAAGACAAAUCUGCCACAAAGCUUGAGAGAAUCUUCGGAUGCAGAGGCGGCAGCCUUCGGUGGCGCGAUAGCGCCAACGUUCUCAACUAUGACACGCAAAACCCGUGCUCCGUUGAAUGGAGUUUAUCAUG [A3U C51A G124C] | -2.87
